The labels stand for the following.
B1: Twister Ribozyme (parent)
chain: AACACUGCCAAUGCCGGUCCCAAGCCCGGAUAAAAGUGGAGGGGGCGG

In the series the parent is B1. The experiment in a line: self-cleavage, relative activity (ratio to wild type); higher = more cleavage; co-transcriptional.
AACACUGCCAAAGCCGGUCCCGAGCCCGGAUAAAAGUGGAGGGGGCGG: the self-cleavage came to 0.396.

For AACACUGCCAAUCCCGGUCCCACGCCCGGAUAAAAGUGGAGGGGGCGG, the self-cleavage was determined as 0.0801. The value for AACACUGCCGAUGCCGGUCCCAAGGCCGGAUAAAAGUGGAGGGGGCGG was 0.409; that for AACACUGCCAAUGCCGGUCCCAAGCCCGGAUAAAAGUGGAAGGGGCGU was 0.511.

Regarding AACACUGCCAAUGCCUGUCCCAAGCCCGGAUAAAAGUGGAGGGGGCGG, the self-cleavage is 1.07.

AACGCUGCCAAUGCCGGUCCCAAGCCCGGAUAAAAGUGGAGGGGGUGG: the self-cleavage turned out to be 0.775.

For AAUACUGCCAAUGCCGGUCCCAAGCCCGGGUAAAAGUGGAGGGGGCGG, the self-cleavage stood at 0.422.

Regarding AACACUGCCAAUGCCGGUCCCAAUCCCGGAUAAAAGUGGAGGGGGCGU, the self-cleavage was 0.0921.

Turning to AACACUGCCAAUGCCGGUCCGAAGCUCGGAUAAAAGUGGAGGGGGCGG, the self-cleavage was 0.0515. To AACACUGCCAAUGCCGGUCCCAAGCCCGGAUAGAAGUGGAGGGGGCCG belongs 0.394. With AACACUGCCAAUGCCGGUAACAAGCCCGGAUAAAAGUGGAGGGGGCGG, the self-cleavage is 0.0769.

Turning to AGCACUGCCAAUGUCGGUCCCAAGCCCGGAUAAAAGUGGAGGGGGCGG, the self-cleavage was 0.275. To AACACUGCCAAUGCCGGUCCCAAGUCCGGAUAAAAGGGGAGGGGGCGG belongs 0.332.

AACACGGCGAAUGCCGGUCCCAAGCCCGGAUAAAAGUGGAGGGGGCGG: the self-cleavage is 0.171. The value for AGCACUGCCAAUGCCGGUCCCAAGCCCGGAUAAAAGUGGAGGGAGCGG was 0.316; that for GACACUGCCAAUGCCGGUCCCAAGCCCGGAUAAAAGUGGAGGGAGCGG was 0.309; that for AACACUACCAAUGGCGGUCCCAAGCCCGGAUAAAAGUGGAGGGGGCGG was 0.0811. The value for UACACUGCCAAUGCCGGUCCCAAGCCCGGCUAAAAGUGGAGGGGGCGG was 0.0658; that for ACCACUGCCAAUGCCGGUCCCAAGCCCUGAUAAAAGUGGAGGGGGCGG was 0.0994; that for AACACUGCCAAUGCCGGGCCCAAGCUCGGAUAAAAGUGGAGGGGGCGG was 0.0716. To AACACUGCCAAUGCCGGUACCAAGCCCGGAUAAAAGUGGAGGGGCCGG belongs 0.233; to ACUACUGCCAAUGCCGGUCCCAAGCCCGGAUAAAAGUGGAGGGGGCGG, 0.0628; to AUCACUGCCAAUGCCGGUCCCAAGCCCGGAUAAAAGUGGAGGGGGUGG, 0.723. As for AACACUGCCAAUGCCGGUCCCAAGCCCGGAUAAUAGUGGAGGGGGCAG, the self-cleavage was determined as 0.601. As for AACACUGCCAAUGCCGGUCGCAAGCCCGGAUAAAAGUGGAGGGGGCCG, the self-cleavage was 0.133.

As to AACACUGCCAAUGCCGGUCCCUAGCCGGGAUAAAAGUGGAGGGGGCGG, the self-cleavage is 0.0668. To AACACUGCCAAUGCCCGUCCCAAGCCCGGAUAAAAGUGGAGGAGGCGG belongs 0.148; to AACACUGCAAAUGCCGUUCCCAAGCCCGGAUAAAAGUGGAGGGGGCGG, 0.0549. To AACACUGCCAAUGCCGGUCCCAAGCCCGGAUAAAAGUGGAGGGCGCGG belongs 0.971; to AACACUGCCAAUGCCGGUCCCAACCCCGGAAAAAAGUGGAGGGGGCGG, 0.0517; to AACACUGCCAAUGUCGGUCCCAAGCCCGAAUAAAAGUGGAGGGGGCGG, 1.06. For AACACUGCCAAUGCCGGUCCCAAGCCAGUAUAAAAGUGGAGGGGGCGG, the self-cleavage was found to be 0.132. For AACACUGUCAAUGCCGGUCCCAAGCCCGGAUAAAAAUGGAGGGGGCGG, the self-cleavage amounted to 0.18.

In the case of AACAUUGCGAAUGCCGGUCCCAAGCCCGGAUAAAAGUGGAGGGGGCGG, the self-cleavage came out at 0.342. As for AACACUGCCAAUGCCGGUCCCAAGCCCAGAUAAAAGUGGACGGGGCGG, the self-cleavage was 0.177. The value for AACACUGCCAAUGACGGUCCCAAGCCUGGAUAAAAGUGGAGGGGGCGG was 0.75; that for AACACUGCCAAUGCCGGACCCAAGGCCGGAUAAAAGUGGAGGGGGCGG was 0.0662. To AACACUGCCAAUGCCGGUCCCAAGCCCGGACAAAAGUUGAGGGGGCGG belongs 0.904. The value for AACACUGCCAAUGCCGGUCCCAAGCCCGGAUAAAAUCGGAGGGGGCGG was 0.283; that for AACACUGUCAAUGCCGCUCCCAAGCCCGGAUAAAAGUGGAGGGGGCGG was 0.0682; that for AACACUGCCAAUGCCGGUCCCAAGACCGAAUAAAAGUGGAGGGGGCGG was 0.308. Regarding AACACAGCCAAUGCCGAUCCCAAGCCCGGAUAAAAGUGGAGGGGGCGG, the self-cleavage stood at 0.181. On to AACACUGCCAAUGCCGGUCCGAAGCCCGGAUAAAAGUGGAGGGGGCCG, for which the self-cleavage turned out to be 0.0639. Take AACACUGCCAAUGCCGGUCCCAAGCCCGGAUAAAAGUGGACGGGGCUG: the self-cleavage is 0.149. The value for AACACUGCCAAUGCCGCUCCCAAGCCCGAAUAAAAGUGGAGGGGGCGG was 0.0678; that for AACGCUGCCAAUGCCGGUCCCAAGCCCGGAUAAAAGGGGAGGGGGCGG was 0.73; that for AACACUGCCAAUGCCGGUCCCAAGCGCGUAUAAAAGUGGAGGGGGCGG was 0.0569. The value for AACACUGCCAAUGCCGGUCCCAAGCCCGUAUAAAAGUGGAGGGGGCCG was 0.364; that for AACACUGCCAAUGCCGGUCCUAACCCCGGAUAAAAGUGGAGGGGGCGG was 0.0925; that for AAGACUGCCAAUGCCGGUCCCAAGCCCGGAUAAAAGUGGAGGGGGCGG was 0.541. To UACAUUGCCAAUGCCGGUCCCAAGCCCGGAUAAAAGUGGAGGGGGCGG belongs 0.076; to AACACUGCCAAUGCCGGUCCCAAGCACGGAUAAAAGUGGAGGGGGCGU, 0.355. AACACUGCCAAGGCGGGUCCCAAGCCCGGAUAAAAGUGGAGGGGGCGG: the self-cleavage is 0.115. To AACACUGCCAGUGCCGAUCCCAAGCCCGGAUAAAAGUGGAGGGGGCGG belongs 0.372.

Values taken from the RNAGym collection of RNA variant scans (doi:10.7554/elife.80360).
